These are literature values, as cited in PMC4080432.

pKd: −log10 of the molar value. Read-outs that look alike come from different tables or passages of the source.

For series [1], the target named is NapB (Escherichia coli) (UniProt P0ABL3).
Series [2] shares this target. This is another data set of the same source.

UniProt P0ABL3, sequence (P0ABL3 28-149): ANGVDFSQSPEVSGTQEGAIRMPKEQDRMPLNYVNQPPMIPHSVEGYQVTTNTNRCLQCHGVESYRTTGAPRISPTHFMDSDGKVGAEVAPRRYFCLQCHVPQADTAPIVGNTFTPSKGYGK

As to NapA (from UniProt P33937), the pKd (in general, the Kd on a negative log10 scale, so that one unit is a factor of ten) with NapB (Escherichia coli) [1] was 4.82; with NapB (Escherichia coli) [2] it was 4.49.
